Reference: patent US20230287109

Target: dimeric human Tie2 extracellular domain (ECD)-human IgG fusion protein (UniProt Q02763)
Sequence (Q02763 23-748): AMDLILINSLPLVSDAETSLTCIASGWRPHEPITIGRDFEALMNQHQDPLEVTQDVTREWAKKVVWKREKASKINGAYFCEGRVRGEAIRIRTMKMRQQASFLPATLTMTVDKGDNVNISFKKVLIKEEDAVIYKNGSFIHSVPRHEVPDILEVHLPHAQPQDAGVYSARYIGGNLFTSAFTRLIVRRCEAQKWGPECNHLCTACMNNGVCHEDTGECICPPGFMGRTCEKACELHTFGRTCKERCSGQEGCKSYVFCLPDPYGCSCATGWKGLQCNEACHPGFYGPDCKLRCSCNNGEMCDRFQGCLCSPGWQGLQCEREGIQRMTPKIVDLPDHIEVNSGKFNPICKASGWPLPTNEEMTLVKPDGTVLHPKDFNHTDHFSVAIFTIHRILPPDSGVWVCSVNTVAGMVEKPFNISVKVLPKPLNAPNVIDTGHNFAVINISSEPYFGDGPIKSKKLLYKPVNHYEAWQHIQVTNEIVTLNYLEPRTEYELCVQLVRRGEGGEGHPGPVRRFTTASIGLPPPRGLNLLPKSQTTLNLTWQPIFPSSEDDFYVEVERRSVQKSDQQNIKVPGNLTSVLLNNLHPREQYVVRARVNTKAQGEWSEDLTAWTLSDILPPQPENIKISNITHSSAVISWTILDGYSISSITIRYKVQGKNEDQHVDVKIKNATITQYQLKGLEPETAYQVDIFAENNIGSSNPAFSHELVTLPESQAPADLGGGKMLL

Recombinant human MMP-14 was tested, and the “cleavage of hTie2-ECD (reducing SDS-PAGE, 30° C., 16 hours)” value was “co-incubation of MMP-14 and human Tie2 resulted in significant reduction of intact hTie2-ECD, with the appearance of shorter, cleaved fragments”.
